Data: the supplement of paper PMC7125110
± gives the standard error. Variants at the floor of the assay were thinned out.

B1: glmS ribozyme (parent)
chain: AUAAAAGCGCCAGAACUACAGAAAUGUAGUUGACGAGGAGGAGGUUUAUCGAAUUUUCGGCGGAUGCCUCCAAA

Variants of: B1
Assay: self-cleavage kobs at 2500 uM GlcN6P; higher = faster cleavage; RNA array
Conditions: with glucosamine-6-phosphate
How it was run: (§1)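 Using a hybridised Cy3 probe at 37 °C, barcoded ribozyme variants transcribed in situ by E. coli RNA polymerase on sequenced MiSeq chips were monitored across tiles imaged over ~14 h. The flow contained glucosamine-6-phosphate from 40 μM to 10 mM in HEPES/KCl/Mg(OAc)2 buffer. Signals were normalised to baseline and to non-cleaving reference variants before per-tile medians were fit to one- or two-exponential decays to yield kobs. Weighted Michaelis–Menten fits across concentrations gave kcat and KM.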

Variant | self-cleavage kobs at 2500 uM GlcN6P [s⁻¹]
A52U G60A G66U | < 1e-05
U31G G63C | < 1e-05
G32U A39U G60U | < 1e-05
U45A A48U | 0.0011 ± 0.00038
A15C G43U C67A | 0.000235 ± 7.7e-05
C16G G43A U57A G66U U69A | < 1e-05
G29C A48C U49C | < 1e-05
C11U C34U G40C | < 1e-05
C8U C10A A15C | < 1e-05
C50G C58G G62C | 0.000553 ± 0.00021
G37A U49C A53U | < 1e-05
G40C G43A A48U A64C U69A | < 1e-05
C10A G40U U47G U49C U55A | < 1e-05
A36U A42G U49G U56C G66U C71U | < 1e-05
C34U U47C C61U | < 1e-05
C11U G13C G62A C71U | < 1e-05
C10G C11U G32A U45C | < 1e-05
G32C U55A | 4.27e-05 ± 1.5e-05
C8G A15C A36G | < 1e-05
U31G A39G U57A A64G | 5.58e-05 ± 2e-05
A39G A42C G43A | < 1e-05
A6U G38C U47A A48G G66A U69G | < 1e-05
G37C G44A G51U G59C | < 1e-05

Variant | self-cleavage kobs at 2500 uM GlcN6P [s⁻¹]
C8U A33C C58G | < 1e-05
G9U G29U A53G | < 1e-05
C10U C16G C34G A39G | < 1e-05
G13U G29C G40C C50U A52C | < 1e-05
G35C A53U G60U C61U | < 1e-05
G7U U57G G60U | < 1e-05
C10U A12U A53U | 4.13e-05 ± 1.7e-05
A14C C16A G63U | < 1e-05
U30A G51A C61U | < 1e-05
U31G C61A C67A | 0.000101 ± 2.8e-05
U30G C67U C71G | 0.00027 ± 9.4e-05
C16A U31G G32U | 9.46e-05 ± 1.9e-05
C10U C16U G32U | 6.59e-05 ± 1.7e-05
C8U G37A C50G A64G C71A | 0.000244 ± 6.7e-05
G13U G35A C67A | < 1e-05
A39G A42U C68U | 0.000999 ± 0.00036
C11G A42C G43A C70U | < 1e-05
A6G A15C G63A | < 1e-05
G37U U56C G60C C61G | < 1e-05
A12G G29C G37A U46A | < 1e-05
A15G G38U G60A | < 1e-05
A15G A39C U45A U56C | 0.000239 ± 5.6e-05
A15C C16U U17A C70G | 7.4e-05 ± 1.7e-05

Variant | self-cleavage kobs at 2500 uM GlcN6P [s⁻¹]
C11G G29U C50U C67U | 0.0015 ± 0.00049
A14C G43A C61U | < 1e-05
G9U U55C U56G C67U | < 1e-05
U47G U54G U57C | 0.00011 ± 2.6e-05
C8U G60U C61G C70G | < 1e-05
G40U U47G G51C U65A | < 1e-05
A15U G29U C61U | < 1e-05
G9U G29U G35U G38C U45G U49A | < 1e-05
C8U G13A G51A | < 1e-05
U30A U31G A48C | 6.79e-05 ± 1.6e-05
U45G C50U U55A | < 1e-05
G13A A14U A53U U54C G60A | < 1e-05
G7C G51U G66A C67U C68U | < 1e-05
U45G G63U C70G | < 1e-05
U30C G35U G51A A53U U56C | < 1e-05
G7U G35U U45A A53C | < 1e-05
U46C U57A C71U | 4.35e-05 ± 1.6e-05
G40U C58A G60U | < 1e-05
A33C A36U G37A U47C | < 1e-05
C8G C11A A33C | < 1e-05
U30C A36U A48C | < 1e-05
G40C C70G C71U | 7.87e-05 ± 1.6e-05
G9C G38C C67U | < 1e-05

Variant | self-cleavage kobs at 2500 uM GlcN6P [s⁻¹]
U46G A48G U57G G62U | < 1e-05
A12U A39U G63A | < 1e-05
C34U G44U U49C G59A C61A | < 1e-05
C10G G37A U56G G62U | < 1e-05
C8U C11A G32A U56G | < 1e-05
A6U U45G A48U | < 1e-05
C58U A64U C67G | < 1e-05
A6C C10G A36G | < 1e-05
A6U A53U G63U | < 1e-05
U46C C50U C61U | < 1e-05
C50G C68G C70U | 7.27e-05 ± 1.1e-05
G9U C10U C34U U46A | < 1e-05
C8A G29C A42G U45C U46G | < 1e-05
G7A A12G G44A U47G | < 1e-05
A12U U54A C58U | 4.04e-05 ± 1.6e-05
G7C A36G U55C | < 1e-05
A39G A48C C71G | 4.19e-05 ± 1.9e-05
C10G C50G U55A | 6.66e-05 ± 2.3e-05
G32A G60C C70A | < 1e-05
C8A G32C C34G A42U C61A | < 1e-05
C8U A15U G44C | < 1e-05
G41U U45G U49A | < 1e-05
G9U G41U G60U C70U | < 1e-05

Variant | self-cleavage kobs at 2500 uM GlcN6P [s⁻¹]
G43C U45A C68G | 0.00405 ± 0.0014
U30C G38C U46C | < 1e-05
A6U G44U U46A A52U U56G C58U C70U | < 1e-05
U31G A39U U55G C71U | 0.0043 ± 0.00067
A12C G41A G63A | < 1e-05
G44C C70A C71U | < 1e-05
C8G C10G A39C | < 1e-05
U31C G40U A42U G63C | < 1e-05
G37A A53U G66U | 8.93e-05 ± 3.4e-05
G37U G41U U47G G63U | < 1e-05
G7U C16U G29A G60U | < 1e-05
G32U G40U U45A | 4.53e-05 ± 1.3e-05
A15C G60A G62U | < 1e-05
U46G G63U C70A | < 1e-05
C8G A14U A42U | < 1e-05
A14U C16A U31G G32U | 0.000112 ± 4.4e-05
G13U A15U U30G G59C | < 1e-05
G9C G66C | < 1e-05
A15U C58G C68U | 6.36e-05 ± 2.9e-05
A12C A15C A39G A64G C70U | < 1e-05
A12U U31C G44U C67A | 0.00303 ± 0.001
A36U G40U G62C G66C | < 1e-05
U31G G32U U45A C71U | 0.000679 ± 0.00029

Variant | self-cleavage kobs at 2500 uM GlcN6P [s⁻¹]
A15C A36C A48U U57C | < 1e-05
G13A G32U G35C A39C | < 1e-05
G35A G37U G51C | < 1e-05
A6U U54G G66C C67U | < 1e-05
A33C G38C A48U | < 1e-05
G37C U57C C58G | < 1e-05
A14U G44A C50A | < 1e-05
C8A C34A U69C | < 1e-05
G9U A12C A33G A53U | < 1e-05
C10U G43A C50U G51C | < 1e-05
C16G A36U A48G C58A | < 1e-05
A6G A12G U54G A64U C70G | < 1e-05
G9U G32C G41U U47G A52G U65G U69A | < 1e-05
U54G U57C | 0.000126 ± 2.3e-05
A14U C16A G63A | < 1e-05
G7C C10G A48C | < 1e-05
U31A A39U C70U | 0.00182 ± 0.0009
A12C C50U G60U C67U | < 1e-05
A12G C16G G44U | < 1e-05
C11U G60U C68A | < 1e-05
G13U U47A U56G | 0.000242 ± 6e-05
A6U C11A G62A | < 1e-05
G29A A48U U69A | < 1e-05

Variant | self-cleavage kobs at 2500 uM GlcN6P [s⁻¹]
G7U G32C C68A | < 1e-05
C10U A14C G66C | < 1e-05
G59C C61U C67A | 4.78e-05 ± 1.7e-05
A42U G44U U65C | < 1e-05
G38A A42C U56G | < 1e-05
G7U U56G C58U | < 1e-05
A6G G7U C70G | 5.26e-05 ± 2.1e-05
G29U G38C G59A | < 1e-05
A15U U55G A64U C71U | < 1e-05
A15C U69A | 4.7e-05 ± 1.5e-05
G37C G44C C67U | < 1e-05
G7A C8G G9C C10G A12C G13A A14G C16A G41C G66U | < 1e-05
A14U G29U A48U A53U G62U | < 1e-05
A6U C11A G29A C50U | < 1e-05
A39C A53U C67A | 6.25e-05 ± 1.6e-05
U30G G40U U57G | < 1e-05
G37C U45G U46G G60C A64C | < 1e-05
U45G U47A | 0.00816 ± 0.0022
C8U C16U G60C C71G | < 1e-05
G44A A53U U54C | 0.000119 ± 4.8e-05
G9U G29A A33U | < 1e-05
G9U G40A U45G C50A | < 1e-05

Variants of: B1
Assay: self-cleavage kobs at 10000 uM GlcN6P; higher = faster cleavage; RNA array
Conditions: with glucosamine-6-phosphate
How it was run: as §1

Variant | self-cleavage kobs at 10000 uM GlcN6P [s⁻¹]
A36U A42G U49G U56C G66U C71U | < 1e-05
G32C U55A | 9.57e-05 ± 1.5e-05
A6U G38C U47A A48G G66A U69G | < 1e-05
U30A G51A C61U | < 1e-05
G9U U55C U56G C67U | < 1e-05
G40U U47G G51C U65A | < 1e-05
U30C G35U G51A A53U U56C | < 1e-05
C8G C11A A33C | < 1e-05
C8A G29C A42G U45C U46G | < 1e-05
A12U U54A C58U | 6.78e-05 ± 1.3e-05
A14U C16A U31G G32U | 9.26e-05 ± 2.2e-05
A33C G38C A48U | < 1e-05
C8A C34A U69C | < 1e-05
G13U U47A U56G | 0.000374 ± 6.2e-05
G7U U56G C58U | < 1e-05
A14U G29U A48U A53U G62U | < 1e-05
G44A A53U U54C | 0.000211 ± 6.8e-05
